Results reported in paper PMC12866179, “Oxidized MIF is an Alzheimer’s disease drug target relaying external risk factors to tau pathology” (Cell Reports Medicine, 2025).

Biological target: T1, recombinant human wild-type macrophage migration inhibitory factor (MIF) (human), P14174
T1 chain: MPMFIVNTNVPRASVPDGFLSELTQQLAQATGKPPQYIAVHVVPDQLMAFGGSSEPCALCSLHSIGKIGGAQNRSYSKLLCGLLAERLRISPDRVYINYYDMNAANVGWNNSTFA
Assay: SEC-MALS; 100 uM MIF (WT or C80W) in 20 mM phosphate buffer, with or without 100 uM PAV-174; TSKgel G2000SWXL, 0.5 mL/min, 25 C; UV 280 nm and miniDawn Treos light scattering
Conditions: remark: other sources report otherwise

B1: recombinant human wild-type macrophage migration inhibitory factor (MIF), P14174 1-115 (natural protein)
chain: MPMFIVNTNVPRASVPDGFLSELTQQLAQATGKPPQYIAVHVVPDQLMAFGGSSEPCALCSLHSIGKIGGAQNRSYSKLLCGLLAERLRISPDRVYINYYDMNAANVGWNNSTFA
B1 showed a stoichiometry N of 3.
